The values that follow come from patent US20100279930A1 (published 2010).

Assay [1] concerns the target T1, human Y4 receptor (human, UniProt P50391 1-375). The assay can be described thus: 125I-PP displacement.
For assay [2], the target named is T1, human Y4 receptor. The experiment in a line: 125I-PP displacement. The source holds these as a separate data set.

Like-named read-outs stand apart in the source and are kept apart here.

T1 sequence (P50391 whole entry): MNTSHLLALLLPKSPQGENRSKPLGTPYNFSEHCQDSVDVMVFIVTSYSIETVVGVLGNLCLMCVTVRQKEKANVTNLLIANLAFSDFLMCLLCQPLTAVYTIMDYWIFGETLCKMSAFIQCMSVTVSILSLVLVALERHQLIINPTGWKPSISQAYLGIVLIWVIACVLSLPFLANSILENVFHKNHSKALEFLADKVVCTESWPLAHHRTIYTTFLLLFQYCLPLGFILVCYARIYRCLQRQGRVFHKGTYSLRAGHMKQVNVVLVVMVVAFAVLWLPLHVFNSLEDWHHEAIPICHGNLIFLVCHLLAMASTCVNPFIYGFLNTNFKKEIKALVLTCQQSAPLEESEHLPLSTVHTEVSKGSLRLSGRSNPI

What is called IC50 is the midpoint of a concentration-inhibition curve. A lower IC50 goes with inhibition by little substance. In the assay with human Y4 receptor [1], AAPLEPKYPGDNATPEQLAKYAAELRRYIDKLTRPRY [4060696] returned an IC50 of 0.151 nM.

Regarding GAPLEPEYPGDNATPEQKAKYAAALRRYIDKLTRPRY [4060601], in the assay with human Y4 receptor [1], the concentration for half-maximal inhibition (IC50) turned out to be 0.088 nM. Against the preceding molecule, the IC50 is about 1.7-fold lower.

Turning to GAPLEPTYPGDNATPEQKAKYAAELRRYIDKLTRPRY [4061080], the 50% inhibitory concentration (IC50) with human Y4 receptor [1] was found to be 0.105 nM. Turning to HPLEPEYPGDDATPQQMARYAAELRRYINKLTRPRY [4057275], the IC50 with human Y4 receptor [2] was found to be 0.162 nM.

With DPLEPEYPGDDATPQQMARYAAELRRYINKLTRPRY [4057277], the IC50 with human Y4 receptor [2] is 0.093 nM. APLEPEYPGDDATPQQMAHYAAELRRYINKLTRPRY [4057139] came in with an IC50 with human Y4 receptor [2] of 0.078 nM.

Regarding GPLEPEYPGDDATPQQMARYAAELRRYINKLTRPRY [4057276], the half-maximal inhibitory concentration (IC50) with human Y4 receptor [2] stood at 0.085 nM. Still for that read-out and setting: as for APLEPEYPGDDATPQQMAKYAADLRRYINKLTRPRY [4057257], the figure is 0.083 nM. Consider PAPLEPVYPGDNATPEQIAKYAADLRRYINKLTRPRY [4057144], for which the 50% inhibitory concentration (IC50) in the assay with human Y4 receptor [2] worked out at 0.083 nM.

Molecule PAPLEPVYPGDDATPQQMAKYAADLRRYINKLTRPRY [4057273] yielded a concentration for half-maximal inhibition (IC50) in the assay with human Y4 receptor [2] of 0.061 nM. In the case of AAPLEPVYPGDNATPEQMARYAAELRRYINKLTRPRY [4057161], in the assay with human Y4 receptor [2], the IC50 amounted to 0.125 nM.

Regarding PAPLEPVYPGDNATPEQMARYAADLRRYINKLTRPRY [4057335], in the assay with human Y4 receptor [2], the IC50 is 0.08 nM. Compared with the last molecule, the IC50 is about 1.6-fold lower. In the assay with human Y4 receptor [2], PAPLEPVYPGDNATPEQMAKYAAELRRYINKLTRPRY [4057151] yielded a half-inhibitory concentration (IC50) of 0.056 nM. In the assay with human Y4 receptor [1], PAPLEPTYPGDNATPEQKAKYAAELRRYIDKLTRPRY [4061081] showed an IC50 of 0.21 nM. In turn, PAPLEPVYPGDNATPEQVAKYAADLRRYINKLTRPRY [4057146] came in with an IC50 with human Y4 receptor [2] of 0.08 nM. On the same count and under the same terms, as for PAPLEPVYPGDNATPEQLAKYAADLRRYINKLTRPRY [4057145], the figure is 0.07 nM; as for PAPLEPVYPGDNATPEQMARYAAELRRYINKLTRPRY [4057162], 0.06 nM. In the case of PAPLEPTYPGDNATPEEMAKYAAELRRYINKLTRPRY [4057446], the 50% inhibitory concentration (IC50) with human Y4 receptor [2] amounted to 0.109 nM.

Turning to HAPLEPVYPGDNATPEQMARYAADLRRYINKLTRPRY [4057338], in the assay with human Y4 receptor [2], the half-maximal inhibitory concentration (IC50) was 0.078 nM.

With PAPLEPFYPGDNATPEQMAKYAADLRRYINKLTRPRY [4057233], the IC50 with human Y4 receptor [2] was found to be 0.13 nM. Against the preceding molecule, the IC50 is about 1.7-fold higher. For the molecule PAPLEPVYPGDNATPEQDAKYAADLRRYINKLTRPRY [4057147], the IC50 with human Y4 receptor [2] was determined as 0.199 nM. Same read-out and setting: to GAPLEPVYPGDNATPEQMARYAAELRRYINKLTRPRY [4057163] belongs 0.088 nM; to PAPLEPTYPGDNATPEQMAKYAADLRRYINKLTRPRY [4057229], 0.143 nM. Molecule PAPLEPHYPGDNATPEQMAKYAADLRRYINKLTRPRY [4057231] yielded an IC50 with human Y4 receptor [2] of 0.049 nM. As to PAPLEPEYPGDDATPQQMAKYAADLRRYINKLTRPRY [4057258], the half-maximal inhibitory concentration (IC50) with human Y4 receptor [2] was determined as 0.078 nM.

Turning to PAPLEPEYPGDNATPEQMAKYAADLRRYINKLTRPRY [4057232], in the assay with human Y4 receptor [2], the half-inhibitory concentration (IC50) amounted to 0.128 nM. On the same count and under the same terms, as for PAPLEPTYPGDNATPEQLAKYAAELRRYINKLTRPRY [4057440], the figure is 0.089 nM. Turning to GAPLEPEYPGDDATPEQKARYAAALRRYINHLTRPRY [4060312], in the assay with human Y4 receptor [1], the IC50 was 0.101 nM.

Consider PLEPEYPGDDATPQQMAHYAAELRRYINKLTRPRY [4057138], for which the 50% inhibitory concentration (IC50) with human Y4 receptor [2] came out at 0.086 nM.

With PLEPEYPGDDATPQQMARYAAELRRYINKLTRPRY [4057153], the concentration for half-maximal inhibition (IC50) in the assay with human Y4 receptor [2] amounted to 0.057 nM.

PLEPVYPGDNATPEQMARYAAELRRYINKLTRPRY [4057159] displayed an IC50 with human Y4 receptor [2] of 0.053 nM. AAPLEPTAPGDNATPEQMARYAAALRRYINKLTRPRY [4060694]: in the assay with human Y4 receptor [1], the IC50 came to 0.079 nM. PLEPVYPGDNATPEQMAKYAADLRRYINKLTRPRY [4057261] returned an IC50 with human Y4 receptor [2] of 0.056 nM.

For the molecule PLEPVYPGDNATPEQLAKYAAELRRYIDKLTRPRY [4060899], the IC50 in the assay with human Y4 receptor [1] was found to be 0.153 nM. This counts as sub-nanomolar. The molecule PAPLEPTYPGDDATPEEMAKYAAELRRYINKLTRPRY [4057445] yielded a 50% inhibitory concentration (IC50) in the assay with human Y4 receptor [2] of 0.107 nM. That is a sub-nanomolar value.

Molecule PAPLEPTYPGDDATPEQLAKYYSELRRYINKLTRPRY [4060314] registered an IC50 with human Y4 receptor [1] of 0.084 nM. On the same count and under the same terms, as for PAPLEPTYPGDNATPEELAKYYSELRRYINKLTRPRY [4060316], the figure is 0.101 nM; as for PAPLEPHYPGDNATPEEMAKYAAELRRYIDKLTRPRY [4060687], 0.171 nM; as for GAPLEPTYPGDDATPEQLAKYAAELRRYINHLTRPRY [4060308], 0.117 nM. On the same count and under the same terms, to GAPLEPTYPGDDATPEQLAKYYSELRRYINKLTRPRY [4060313] belongs 0.097 nM. As to AAPLEPEYPGDDATPQQMAHYAAELRRYINKLTRPRY [4057141], in the assay with human Y4 receptor [2], the IC50 was 0.114 nM. This lies in the sub-nanomolar range. On the same count and under the same terms, to HAPLEPEYPGDDATPQQMARYAAELRRYINKLTRPRY [4057137] belongs 0.092 nM; to GAPLEPEYPGDDATPQQMARYAAELRRYINKLTRPRY [4057136], 0.064 nM. Turning to GAPLEPEYPGDDATPQQKARYAAELRRYINKLTRPRY [4060684], the half-inhibitory concentration (IC50) with human Y4 receptor [1] is 0.076 nM. Regarding PAPLEPEYPGDDATPQQMAHYAAELRRYINKLTRPRY [4057140], the half-maximal inhibitory concentration (IC50) with human Y4 receptor [2] is 0.126 nM. That is a sub-nanomolar value. Molecule PAPLEPTYPGDDATPQEMAKYAAELRRYINKLTRPRY [4057444] yielded an IC50 with human Y4 receptor [2] of 0.116 nM. With PAPLEPEYPGDDATPQQKARYAAELRRYINKLTRPRY [4060685], the 50% inhibitory concentration (IC50) with human Y4 receptor [1] stood at 0.065 nM. DAPLEPEYPGDDATPQQMARYAAELRRYINKLTRPRY [4057135] gave a half-inhibitory concentration (IC50) in the assay with human Y4 receptor [2] of 0.097 nM. On the same count and under the same terms, to AKPLEPEYPGDDATPQQMARYAAELRRYINKLTRPRY [4057280] belongs 0.049 nM; to AAPLEPEYPGDDATPQQMAKYAADLRRYINKLTRPRY [4057259], 0.083 nM; to PAPLEPEYPGDDATPQQLAKYAAELRRYINKLTRPRY [4057441], 0.088 nM. On the same count and under the same terms, to PKPLEPEYPGDDATPQQMARYAAELRRYINKLTRPRY [4057279] belongs 0.08 nM; to PAPLEPDYPGDDATPQQMAKYAAELRRYINKLTRPRY [4057443], 0.078 nM. Consider PAPLEPHYPGDNATPEEMAKYYSELRRYIDKLTRPRY [4060895], for which the 50% inhibitory concentration (IC50) with human Y4 receptor [1] was determined as 0.121 nM. On to AAPLEPVYPGDNATPEQMAKYYSELRRYINKLTRPRY [4057271], for which the IC50 in the assay with human Y4 receptor [2] turned out to be 0.062 nM.
